Data on 1 substance can be found in patent US20120088237.

Positions count from the first letter of the chain named.

Series [1] has as its system T1, BstNI (Bacillus stearothermophilus).
T1 sequence: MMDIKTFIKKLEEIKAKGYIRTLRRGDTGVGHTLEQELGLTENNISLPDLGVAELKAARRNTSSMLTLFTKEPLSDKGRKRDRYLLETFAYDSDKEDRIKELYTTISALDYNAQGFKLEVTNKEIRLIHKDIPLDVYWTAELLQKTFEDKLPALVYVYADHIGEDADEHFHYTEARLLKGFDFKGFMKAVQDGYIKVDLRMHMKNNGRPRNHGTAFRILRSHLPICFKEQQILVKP
The series is described as follows: cleavage_in_vitro. The note with it: 5mC at inner (second) C of CCWGG (dcm); NEB1 and NEB4 0.1; NEB2 0.5; NEB3 2; 60 C 1 h, crude lysate.

Series [2] concerns T2, BstNI R200C R200C (Bacillus stearothermophilus).
T2 sequence: T1 sequence with R200C
The series is described as follows: cleavage_in_vitro. Particulars: 5mC at inner (second) C of CCWGG (dcm); NEB1, NEB2 and NEB4 each 100; NEB3 10; 60 C 1 h, crude lysate.

With “CCWGG (double strand) [dcm+ plasmid pBC4 (C5mCWGG)]”, the relative cleavage in vitro (fold (dcm+/dcm- cleavage)) was 0.1 in series [1] and 100 in series [2].
